# Laboratory results reported in the nanobody polyreactivity screen of Harvey et al. (2022).
# Assay: yeast display, Sf9 membrane polyspecificity reagent, FACS + sequencing; frameworks hold sequencing errors
# Method in brief: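 After 36–48 hours of galactose induction, yeast (Saccharomyces cerevisiae BJ5465) displaying a synthetic nanobody library were stained at 4 °C for 1 hour with 10% biotinylated, detergent-solubilized Sf9 membrane reagent. Streptavidin microbeads enriched the stained cells before FACS sorting into low and high (top ~1%) gates on anti-HA and streptavidin fluorescence. Each clone's polyreactivity label reflects its gate of origin.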
row,Sequence,polyreactivity (PSR sort gate)
1,QVQLVESGGGLVQAGGSLRLSCAASGRIFVYNVMGRYRQAPGKERELVAAISWGTGSTYADSVKGRFTISRDNAKNTVYLQMNSLKPEDTAVYYCAADSFIPPYDHWGQGTQVTVSS,low polyreactivity
2,QVQLVESGGGLVQAGGSLRLSCAASGRTFETNAMGWYRQAPGKERELVAAISRSGGSTRYADSVKGRFTISRDNAKNTVYLQMNSLKPEDTAVYYCAAETWYRGYKFDYWGQGTQVTVSS,high polyreactivity
3,QVQLVESGGGLVQAGGSLRLSCAASGFTISRYAMGWYRQAPGKERELVASITYSGTRTYYADSVKGRFTISRDNAKNTVYLQMNSLKPEDTAVYYCAADDEYKQEAEMDSWGQGTQVTVSS,low polyreactivity
4,QVQLVESGGCLVQAGGSLRLICAASGSIFDYNAMGWYRQAPGKERELVADITLSDDSTYYADSVKGRFTISRDNAKNTVYLQKNSLKPEDTAVYYCAADIKYYWYYYYWAYAYDYWGQGTQVTVSS,high polyreactivity
5,QVQLVESGGGLVQAGGSLRLSCAASASNFGYNAMGRYRQAPGKERELVAVITDSGGSTYYADSVKGRFTISRDNAKNTVYLQMNSLKPEDTAVYYCAKVYGLVVRGHVILSGFDYWGQGTQVTVSS,low polyreactivity
6,QVQLVESGGGLDQAGGSLRLSCAASGNIFYRYAMGWYRQAPWKERELVAAISGNSGNTYYADSVKGRFTISRDNAKNTVYLQMNSLKPEDTAVYYCAAERRAFGHYSWGQGTQVTVSS,high polyreactivity
7,QVQLVESGGGLVQAGGSLRLSCAASGSIFYSNVMGWYRQAPGQERELVARITDAGSTNYADSVKGRFTISRDNAKHTVYFQMNSLKPEDTAVYYCNARLVIYTFDYWGQGTLVTVSS,low polyreactivity
8,QVQLQESRGGLVQAGGSLRLSCAASGTISDRAGMGWYRQAPAKNAIVATIDRGTNTNYADSVKGRFTISRDNAKNTVYLQMNSLKPEDTAVYNCAADGRYYIYLDYWGQGTQVTVSS,low polyreactivity
9,QVQLVESGGGLVQAGGSLRLSCAASGLTFSLYAMGWYRQAPGKERELVAAISSSGSTYYADSVKGRFTISRDNAKNTVYLQMNSLKPEDTAVYYCAADAPWWIDPIAGNYWGQGTQVTVSS,high polyreactivity
10,HVQLVESGGGLVQAGGSLRLSCAASGLTFTRYTMGWSRQAPGKERELVAAITSSGGSTYYADSVKGRFTISRDNAKNTVYLQMNSLKPEDTAVYDCAARTGYGYGARRTLKSRYDYWGQGTQVTVSS,high polyreactivity
11,QVQLVESGGGLVQAGGSLRLSSAASGSTFRFNAKGWYRQAPGKERELVARISTIGGNTFYADSVKGRFTISRDNAKNTVYLQMNSLKTEDTAVYYCATTGGPSCRKYVYWGQGTQVTVSS,high polyreactivity
12,QVQLVESGGGLVQAGGSLRLSCAASGFIYPRNTMGWYRQAPGKERELVAAITWIGGRTYYADSVKGRFTISRDNAKNTVYLQMNSLKPEDTAVYYCAADYSVFYDEDYWGQGTQVTVSS,low polyreactivity
13,QVQLVESGGGLVQAGGSLRLSCAASGLIFVYYTMGWYRQAPGKERELVARISQSGGTTYYADSVKRRFTISRDNAKNTVYLQLNSLKREDTAVYYCAAVYQLYYSGGRYYYWGQGSQVTVSS,high polyreactivity
14,QVQLVESGGGLVQARGSLRLSCAASGRIFPGYAMGWYRQAPGKERELVAGISNDASTNYADSVKGRFTISRDNAKNTVYLQMNSLKPEDTAVYYCAAEISSLSFPRYDYWGQGTQVTVSS,low polyreactivity
15,QVQLVESGGGLVQAGGSLRLSCAASGRTFRSYAMGWYRQAPGKERELVAVISGGGTYYADSVKGRFTISRDNAKNTVYLQMNSLKPEDTAVYYCAAQFHFRPFSWTYDYWGQGTQVTVSS,high polyreactivity
16,QVQLVESGGGLVQAGGSLRLSCAASGRTFNVYAMGWYRQAPGKETELVAVITNGGSTNYADSVKGRFTISRDNAKNTVYFQMNSLKPEDTAVYYCAAREDLYLYYNGQRVQYDYCGQGTQVTVSS,low polyreactivity
17,QVQLVESGGGLVQAGGSLRLSCAASGSTLYPNAMGWYRQAPGKERELVAAISSGSSTYADSVKGRFTISRDNAKNTVYLQMNRLKPEDTAVYYCNADSRIHYDYWGQGTQVTVSS,low polyreactivity
18,RVQLVESGGGLVQAGGSLRLSCAASGSIFRGYAMGWYRQAPGKERGLVAAITSGGSTNYADSVKGRFTISRDNAKNTVYLQMNSLKPEDTAVYYCAKDLALVAPLSDYWGQGTQVTVSS,low polyreactivity
19,QVQIEESGGGLVQAGRSLRLSCAASGFIFGSNAMGWYRQAPGKETELVAAISRSGGSTYYADSVKGRFTISRDYAKNTVYVQMNSLKPEDTAVYYGASYLYKTRYLTEYDYWGHGTQVTVSS,high polyreactivity
20,QVQLVESGGGLVQAGGSLRLSCAASGFTFAGYVLGWYRKAPGKDRELVAAISNSGGRTYADSVKGRFTISRDNAKNTVYLQMNSLKPEDTAVYYCAKKPGGFSQASRVDYDYWGQGTQVTVSS,low polyreactivity
21,QVQLVESGGGLVQAGGSLRLSCAASGSTFYQYAMGWYRQAPGKERELVAAISRSGSTNYADSVKGRFTISRDNAKNTVYLQMNSLKPEDTAVYDCAARLGTRQYKMDYWGQGTQVTVSS,high polyreactivity
22,QVQLVESGGCLVQAGGTLRLSCAASGFTFGNNGMGWYRQAPGKERELVATISWSGGSTDADSVKGRFTISRDNAKNTVYLQMNSLKPEDTAVSYCAARPRWYFFSYGRQDDGSWGQGTQVTVSS,low polyreactivity

row,Sequence,polyreactivity (PSR sort gate)
1,QVQLVESGGDLVQAGGSLRLSCAASGITFVYNAMGWYRQAPGKERELVAGITWSGSSTYYADSVKGRFTISRDNAKNTVYLQMNSLKPEDTAVYYCAAYLYDRTTRYTYYYWGQGTQVTVSS,high polyreactivity
2,QVQLVESGGGLVQAGGRLRLSSADYGITIELYVMGWYRQAPGKERELVAAINRGTSTYYADSVKGRFTISRDNAKNTVYLQMNSLKPEDTAVYYCAAESGVVALYRYDYWGQGTQVTVSS,low polyreactivity
3,QVQLVESGGGLVQAGGSLRLSCAASGFTFHSYAMGWYRQAPGKERELVAAISGRGGSTYYADSVKGRFTISRDNAKNTVYLQMNSLKPEDTAVYYCARYGYHDYGYWGQCTQVTVSS,high polyreactivity
4,QVQLVESGGGLVQAGGSLRLSCAASGIFFNYMGWYRQAPGKEREFVAAIDYRGGNTFYADSVKGRFTISRDNAKNTVYLQMNSLKPEDTAVYYCARAFGQRRYDYWGQGTQVTVSS,high polyreactivity
5,QVQLVESGGGLVQAGGSLRLSCAASGFISFDKAMGWYRQAPGKERELVAAIRSGGSTNYADSVKGLFTISRDNAKNTVYLQMNSLKPEDTAVYYCATDGSLRARSTSGWEYTNGDYWGQGTQVTVSS,low polyreactivity
6,QVELVESGGGLVQAGGSLRLSCPASGRTFYYYAMGWSRQEPGKERELVATITKSSGSTYYADSVKGRFTISRDNAKNTVYLQMNSLKPEDTAVYYCNADPWAKTPYYYWGQGTQVTVSS,high polyreactivity
7,QVQLVESGGGLVQAGGSLRLSCAASGSIFGYNAMGWSRPAPGKERELVAAITSSGGSTYYADSVKGRFTISRDNAKNTVYLQMNSLKPEDTAVYYCNARDWYIVWYDYWGQGTQVTVSS,low polyreactivity
8,QVQLVESGGGLVQAGGSLRLSCSASGSIFPHYAMGWYRQAPGKERELVAAISRSGTSTYYADSVKGRFTISRDNAKNTVYLQMNSLKPEDTAVYYCNAYQVYTRTYGYCGQGTQVTVSS,high polyreactivity
9,QDQLVESGGGLVQAGGSLRLSCAASGRTLTRYTMGWYRQAPGKERELVATISRSGGNTHYADSVKGRFTISRDTAKNTVYLQMNSLIPEDTAVYYCNAVRYAIYGYDYWGQGTQVTVSS,high polyreactivity
10,QVQLVESGGGLVQAGGSLRLSCAASGSIFSNNAMGWYRQAPGKERELVAAITRSGGNTYYADSVKGRFTISRDNAKNTVYLQMNSLKPEDTAVYYCNAVHLRKMYYWGQGTQVTVSS,high polyreactivity
11,QVQLVESGGGLVQAGGSLRLSCAASGFTFRYYAMGWYRQAPGKVRELVASITGGGRTYYADSVKGRFTISRDNAKNTVYLQMNSLKPEDTAVYYCATLVAYRLGSGYDSWGQGTQVTVSS,high polyreactivity
12,QVQLVESGGGLVQAGGSLRLSCAASGRTFHEYAMGWYRQAPGTERELVADISDGGSTNYADSVKGRFTISRDNAKNTVYLQMNSLKPEDTAVYYCNTDVPSAQYDYWGQGTQVTVSS,low polyreactivity
13,QVQLVESGGGLVQAGGSLRLSCAASGRIFPINVMGWYRQAPGKERELVAAISGRGGSTYYADSVKGRFTISRDNAKNTVYLQMNSLKPEDTAVYYCAARSPYRYYYWGQGTQVTVSS,high polyreactivity
14,QVQLVESGGGLVQAGGSLRLSCAASGSIFYVYVMGWYRQAPGKERELVAAIDTGGGDTYYADSVKGRFTISRDNAKNTVYLQMNSLKPEDTAVYYCAAELYDYGDLYYSEYDYWGQGTQVTVSS,low polyreactivity
15,QVQLVESGVGLVQAGGSLRLSWTASGRIFSWYAMGWYRQAPGKERELVADISWGTGSTYYADTVKGRFTISRDNAKHTVDLQMNSLKPEDTAVYYCAADPGYYYEYRRFYYWGQGTQVTVSS,high polyreactivity
16,QVQLVESGGGLVQAGGSLRLSCAASGSIFYWYAMGWYRQAPGKEREFVAAISRSDGSTYYADSLKRRFTISRDNAKNTVYLEMNRLKPEDTAVYYCAAERYYFPRSYRYGYWGQGTQVTVSS,low polyreactivity
17,QVQLVESGGGLVQAGGSLRLSCAASGSIFAWYTMGWYRQAPGKERELVATITRGGSTTYADSVKGRFTISRDNAKITVYLQMNSLKPEDTAVYYCAADWRTKGYDSLGQGTQVTVSS,high polyreactivity
18,QVQLVESGAGLVQAGGSLRLSCAASGRIFTNYVLGWSRQAPGKERELVAAISWTGGRTYYADSVKGRFTISRDYAKNTVYLQMISLKPEDTAVYYCAARARIGTVDYWGQGTQVTVSS,high polyreactivity
19,QVQLVESGGGLVQAGGSLRLSCAASGYIFWGNAMGWYRQAPGKERELVAAISYIGGSTYYADSVKGRFTISRDNAKNTVYLQMNSLKPEDTAVYYCAKRVLHQPYYHGVSGRRYDYWGQGTQVTVSS,high polyreactivity
20,QVQLVESGGGLVQAGGSLRLSCAASGGIFVVYGMGWYRQAPGKERELVAAISWRGGSTYYADSVKGRFTISRDNAKNTVYLQMNSLKPEDTAVSYCAADQYYGGYDYWGQGTQVTVSS,low polyreactivity
21,QVQLVESGGGLVQAGGSLRLSCAASGRTFASYGMGWYRQAPGKHRELVASITRRGGSTYYADSVKGRFTISRDNAKNTVYLQMNSLKPEDTAVYYCAATRVRSASYSIEYDYWGQGTQVTVSS,high polyreactivity
